In publication PMC4156824 (Molecular cell, 2014):

B1: Mcm2 (natural protein, S. cerevisiae, UniProt P29469 1-868, looked up)
chain: MSDNRRRRREEDDSDSENELPPSSPQQHFRGGMNPVSSPIGSPDMINPEGDDNEVDDVPDIDEVEEQMNEVDLMDDNMYEDYAADHNRDRYDPDQVDDREQQELSLSERRRIDAQLNERDRLLRNVAYIDDEDEEQEGAAQLDEMGLPVQRRRRRRQYEDLENSDDDLLSDMDIDPLREELTLESLSNVKANSYSEWITQPNVSRTIARELKSFLLEYTDETGRSVYGARIRTLGEMNSESLEVNYRHLAESKAILALFLAKCPEEMLKIFDLVAMEATELHYPDYARIHSEIHVRISDFPTIYSLRELRESNLSSLVRVTGVVTRRTGVFPQLKYVKFNCLKCGSILGPFFQDSNEEIRISFCTNCKSKGPFRVNGEKTVYRNYQRVTLQEAPGTVPPGRLPRHREVILLADLVDVSKPGEEVEVTGIYKNNYDGNLNAKNGFPVFATIIEANSIKRREGNTANEGEEGLDVFSWTEEEEREFRKISRDRGIIDKIISSMAPSIYGHRDIKTAVACSLFGGVPKNVNGKHSIRGDINVLLLGDPGTAKSQILKYVEKTAHRAVFATGQGASAVGLTASVRKDPITKEWTLEGGALVLADKGVCLIDEFDKMNDQDRTSIHEAMEQQSISISKAGIVTTLQARCSIIAAANPNGGRYNSTLPLAQNVSLTEPILSRFDILCVVRDLVDEEADERLATFVVDSHVRSHPENDEDREGEELKNNGESAIEQGEDEINEQLNARQRRLQRQRKKEEEISPIPQELLMKYIHYARTKIYPKLHQMDMDKVSRVYADLRRESISTGSFPITVRHLESILRIAESFAKMRLSEFVSSYDLDRAIKVVVDSFVDAQKVSVRRQLRRSFAIYTLGH
B2: Mcm7 (natural protein, S. cerevisiae, UniProt P38132 1-845, looked up)
chain: MSAALPSIQLPVDYNNLFNEITDFLVTFKQDTLSSDATRNENEDENLDAENIEQHLLEKGPKYMAMLQKVANRELNSVIIDLDDILQYQNEKFLQGTQADDLVSAIQQNANHFTELFCRAIDNNMPLPTKEIDYKDDVLDVILNQRRLRNERMLSDRTNEIRSENLMDTTMDPPSSMNDALREVVEDETELFPPNLTRRYFLYFKPLSQNCARRYRKKAISSKPLSVRQIKGDFLGQLITVRGIITRVSDVKPAVEVIAYTCDQCGYEVFQEVNSRTFTPLSECTSEECSQNQTKGQLFMSTRASKFSAFQECKIQELSQQVPVGHIPRSLNIHVNGTLVRSLSPGDIVDVTGIFLPAPYTGFKALKAGLLTETYLEAQFVRQHKKKFASFSLTSDVEERVMELITSGDVYNRLAKSIAPEIYGNLDVKKALLLLLVGGVDKRVGDGMKIRGDINVCLMGDPGVAKSQLLKAICKISPRGVYTTGKGSSGVGLTAAVMKDPVTDEMILEGGALVLADNGICCIDEFDKMDESDRTAIHEVMEQQTISISKAGINTTLNARTSILAAANPLYGRYNPRLSPLDNINLPAALLSRFDILFLMLDIPSRDDDEKLAEHVTYVHMHNKQPDLDFTPVEPSKMREYIAYAKTKRPVMSEAVNDYVVQAYIRLRQDSKREMDSKFSFGQATPRTLLGIIRLSQALAKLRLADMVDIDDVEEALRLVRVSKESLYQETNKSKEDESPTTKIFTIIKKMLQETGKNTLSYENIVKTVRLRGFTMLQLSNCIQEYSYLNVWHLINEGNTLKFVDDGTMDTDQEDSLVSTPKLAPQTTASANVSAQDSDIDLQDA
B3: Mcm4 (natural protein, S. cerevisiae, UniProt P30665 1-933, looked up)
chain: MSQQSSSPTKEDNNSSSPVVPNPDSVPPQLSSPALFYSSSSSQGDIYGRNNSQNLSQGEGNIRAAIGSSPLNFPSSSQRQNSDVFQSQGRQGRIRSSASASGRSRYHSDLRSDRALPTSSSSLGRNGQNRVHMRRNDIHTSDLSSPRRIVDFDTRSGVNTLDTSSSSAPPSEASEPLRIIWGTNVSIQECTTNFRNFLMSFKYKFRKILDEREEFINNTTDEELYYIKQLNEMRELGTSNLNLDARNLLAYKQTEDLYHQLLNYPQEVISIMDQTIKDCMVSLIVDNNLDYDLDEIETKFYKVRPYNVGSCKGMRELNPNDIDKLINLKGLVLRSTPVIPDMKVAFFKCNVCDHTMAVEIDRGVIQEPARCERIDCNEPNSMSLIHNRCSFADKQVIKLQETPDFVPDGQTPHSISLCVYDELVDSCRAGDRIEVTGTFRSIPIRANSRQRVLKSLYKTYVDVVHVKKVSDKRLDVDTSTIEQELMQNKVDHNEVEEVRQITDQDLAKIREVAAREDLYSLLARSIAPSIYELEDVKKGILLQLFGGTNKTFTKGGRYRGDINILLCGDPSTSKSQILQYVHKITPRGVYTSGKGSSAVGLTAYITRDVDTKQLVLESGALVLSDGGVCCIDEFDKMSDSTRSVLHEVMEQQTISIAKAGIITTLNARSSILASANPIGSRYNPNLPVTENIDLPPPLLSRFDLVYLVLDKVDEKNDRELAKHLTNLYLEDKPEHISQDDVLPVEFLTMYISYAKEHIHPIITEAAKTELVRAYVGMRKMGDDSRSDEKRITATTRQLESMIRLAEAHAKMKLKNVVELEDVQEAVRLIRSAIKDYATDPKTGKIDMNLVQTGKSVIQRKLQEDLSREIMNVLKDQASDSMSFNELIKQINEHSQDRVESSDIQEALSRLQQEDKVIVLGEGVRRSVRLNNRV
B4: Mcm3 (Flag-tagged subunit of Mcm2-7) (natural protein, S. cerevisiae, UniProt P24279 1-971, looked up)
chain: MEGSTGFDGDATTFFAPDAVFGDRVRRFQEFLDTFTSYRDSVRSIQVYNSNNAANYNDDQDDADERDLLGDDDGDDLEKEKKAASSTSLNILPHRIIISLDDLREFDRSFWSGILVEPAYFIPPAEKALTDLADSMDDVPHPNASAVSSRHPWKLSFKGSFGAHALSPRTLTAQHLNKLVSVEGIVTKTSLVRPKLIRSVHYAAKTGRFHYRDYTDATTTLTTRIPTPAIYPTEDTEGNKLTTEYGYSTFIDHQRITVQEMPEMAPAGQLPRSIDVILDDDLVDKTKPGDRVNVVGVFKSLGAGGMNQSNSNTLIGFKTLILGNTVYPLHARSTGVAARQMLTDFDIRNINKLSKKKDIFDILSQSLAPSIYGHDHIKKAILLMLMGGVEKNLENGSHLRGDINILMVGDPSTAKSQLLRFVLNTASLAIATTGRGSSGVGLTAAVTTDRETGERRLEAGAMVLADRGVVCIDEFDKMTDVDRVAIHEVMEQQTVTIAKAGIHTTLNARCSVIAAANPVFGQYDVNRDPHQNIALPDSLLSRFDLLFVVTDDINEIRDRSISEHVLRTHRYLPPGYLEGEPVRERLNLSLAVGEDADINPEEHSNSGAGVENEGEDDEDHVFEKFNPLLQAGAKLAKNKGNYNGTEIPKLVTIPFLRKYVQYAKERVIPQLTQEAINVIVKNYTDLRNDDNTKKSPITARTLETLIRLATAHAKVRLSKTVNKVDAKVAANLLRFALLGEDIGNDIDEEESEYEEALSKRSPQKSPKKRQRVRQPASNSGSPIKSTPRRSTASSVNATPSSARRILRFQDDEQNAGEDDNDIMSPLPADEEAELQRRLQLGLRVSPRRREHLHAPEEGSSGPLTEVGTPRLPNVSSAGQDDEQQQSVISFDNVEPGTISTGRLSLISGIIARLMQTEIFEEESYPVASLFERINEELPEEEKFSAQEYLAGLKIMSDRNNLMVADDKVWRV

Key:
[1] = target: B4; assay: co-IP
Mcm6 = Mcm6 (S. cerevisiae, UniProt P53091 1-1017); assay: co-IP
Sequence of Mcm6 (P53091 whole entry): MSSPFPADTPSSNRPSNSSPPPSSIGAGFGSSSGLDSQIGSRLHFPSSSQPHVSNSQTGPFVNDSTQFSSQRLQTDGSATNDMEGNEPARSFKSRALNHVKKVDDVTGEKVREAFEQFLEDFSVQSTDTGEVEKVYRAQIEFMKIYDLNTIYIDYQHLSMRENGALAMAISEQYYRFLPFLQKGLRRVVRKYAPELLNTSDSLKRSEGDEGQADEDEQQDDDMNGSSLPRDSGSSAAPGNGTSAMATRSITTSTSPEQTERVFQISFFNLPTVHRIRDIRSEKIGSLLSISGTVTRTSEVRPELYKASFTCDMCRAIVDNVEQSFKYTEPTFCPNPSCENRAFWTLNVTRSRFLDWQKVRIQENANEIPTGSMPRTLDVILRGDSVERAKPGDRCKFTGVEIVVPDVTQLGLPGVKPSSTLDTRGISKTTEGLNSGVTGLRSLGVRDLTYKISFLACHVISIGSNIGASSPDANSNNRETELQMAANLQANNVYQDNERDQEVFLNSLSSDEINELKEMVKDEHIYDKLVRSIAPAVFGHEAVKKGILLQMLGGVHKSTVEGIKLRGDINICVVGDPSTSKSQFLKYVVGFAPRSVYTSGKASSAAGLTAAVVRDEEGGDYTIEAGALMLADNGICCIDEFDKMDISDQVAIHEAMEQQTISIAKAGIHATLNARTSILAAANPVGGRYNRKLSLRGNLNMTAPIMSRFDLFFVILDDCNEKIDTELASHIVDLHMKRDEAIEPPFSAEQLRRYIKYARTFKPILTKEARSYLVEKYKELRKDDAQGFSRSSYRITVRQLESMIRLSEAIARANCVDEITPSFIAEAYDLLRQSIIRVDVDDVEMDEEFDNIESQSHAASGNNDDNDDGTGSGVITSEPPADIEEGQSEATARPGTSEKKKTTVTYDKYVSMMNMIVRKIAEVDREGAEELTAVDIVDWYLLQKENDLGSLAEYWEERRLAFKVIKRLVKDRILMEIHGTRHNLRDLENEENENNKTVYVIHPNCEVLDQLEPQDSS

Row | Binder | binding result [1] | binding result (Mcm6)
1 | B1 | binds | 
2 | B2 | binds | 
3 | B3 | binds | 
4 | B4 |  | binds
